Results as given in patent publication US20180111972A1.

B1: PVAM-S (PV R32A), soluble, FLAG and hexahistidine tags (designed binder)
chain: DYKDDDDKIAEPAMIAECHPIETLVDILQEYPDEIGYIFKPSCVPLMRCGGCCNNRNVQCRPTEESNITMQIMRIKPHRGQHIGEMSFLQHNKCRCETVAAGSTSGSGKSSEGKGEVVKFMDVYQRSYCKTRTEVFEISRRLIDATNANFLVWPPCVEVQRCSGCCNHEGLECVPTQVQLRPVQVRKIEFVRKKPIFKKATVTLEDHLACECRPKKDHHHHHH
B2: PV RF (PV K87R chain 1 and PV I182F chain 2), soluble, FLAG and hexahistidine tags (designed binder)
chain: DYKDDDDKIAEPAMIAECHPIETLVDIFQEYPDEIEYIFKPSCVPLMRCGGCCNNRNVQCRPTEESNITMQIMRIKPHQGQHIGEMSFLQHNKCRCETVAAGSTSGSGKSSEGKGEVVKFMDVYQRSYCKTRTEVFEISRRLIDRTNANFLVWPPCVEVQRCSGCCNDEGLECVPTQVQLRPVQVRKIEFVRKKPIFKKATVTLEDHLACECRPKKDHHHHHH

Experiments:
[1] = molecular target: human PDGFR on BJ-5ta human fibroblasts (human) (UniProt P09619); test: flow cytometry on cells, soluble ligand titrated
[2] = molecular target: human PDGFR on BJ-5ta human fibroblasts (human) (UniProt P09619); test: flow cytometry on cells, soluble ligand titrated 3 h at 4 C, anti-FLAG-PE
[3] = molecular target: human PDGFR on BJ-5ta human fibroblasts (human) (UniProt P09619); test: flow cytometry on BJ-5ta cells, soluble ligand titrated 5 h at 4 C, anti-FLAG-PE
[4] = molecular target: human PDGFR on BJ-5ta human fibroblasts (human) (UniProt P09619); test: flow cytometry titration of the soluble FLAG-tagged protein on BJ-5ta cells, anti-FLAG detection
[5] = molecular target: mouse PDGFR on NIH/3T3 mouse fibroblasts (mouse) (UniProt P05622); test: flow cytometry on cells, soluble ligand titrated
[6] = molecular target: mouse PDGFR on NIH/3T3 mouse fibroblasts (mouse) (UniProt P05622); test: flow cytometry on cells, soluble ligand titrated 3 h at 4 C, anti-FLAG-PE

| Binder | fold decrease in Kd compared to PV6 [1] [fold] | Kd [2] [pM] | Kd [3] [pM] | EC50 (read off the curve) [4] [pM] | fold decrease in Kd compared to PV6 [5] [fold] | Kd [6] [pM] |
| --- | --- | --- | --- | --- | --- | --- |
| B1 | 41 | 10.9 | 5.1 | 6 | – | – |
| B2 | 63 | 7.1 | – | – | 22 | 15 |
